Data on 2 molecules can be found in patent US10428347B2, “Herbicide-detoxifying enzymes and uses thereof” (priority 2017, dated 2019).

Experiment [1] has as its system soybean plants. In words: Field soybean plant protection assay with dicamba, CAC or ChD and MnSO4. Particulars: field soybean V3-V6, dicamba reaction buffer 200 ppm with 50 mM MnSO4, after 11 days.
Experimental: The CAC and ChD enzymes were generated in production batches as previously described and divided up into aliquots and centrifuged to remove any cellular debris. […] The dilution to achieve 200 ppm or 200 mg/L was made in 25 mM HEPES pH 7 in a 10 mL total volume. […] To each treatment, 0.01% SILWET L-77 surfactant was added. Then, 4 mL of reaction solution was applied evenly across 20 plants and compared to the untreated control plants applied to soybean grown in the same location in the field to minimize any field variability. After 11 days, the average trifoliate damage was evaluated by visual scoring.
Experiment [2] relates to soybean plants. Nature of the experiment: V1 soybean bioassay of dicamba reacted with ChD with or without MnSO4. Conditions: dicamba 100-200 ppm.
Experimental: Soybean plants (variety Morsoy Xtra) were planted in Timberline soil (2 seeds per pot) and grown for 12 days under controlled environmental growth conditions: 300 μmol m^−2 s^−1 (light photons) for a 13/11 light/day cycle and a 21° C. day/15° C. night temperature range until the V1 stage of development.
The dilution to achieve 100 ppm or 100 mg/L was made in 25 mM HEPES pH 7 in a 10 mL total volume. […] The ChD enzyme production was centrifuged to remove any cellular debris and then divided into aliquots of 100 μL containing the Bacillus subtillis (A64) filtrate with the ChD expressed enzyme. […] The reactions were incubated at 37° C. with 400 ppm stirring for two hours. Aliquots of the reactions were collected and stored at −80° C.
For experiment [3], the system named is soybean plants. In words: Soybean seed treatment with chlorothalonil dehalogenase, simulated spray drift of dicamba or 2,4-D. The format is in vivo. Particulars: soybean seed coated with 3 uL enzyme, 4 weeks after planting; for Percentage Increase in Plant Height Compared to Untreated Seed (2,4-D; Weedar ®64 Spray Treatment) / Percentage Increase in Total Plant Biomass Compared to Untreated Seed (2,4-D; Weedar ®64 Spray Treatment): over the top 2,4-D 500 ppm; for Percentage Increase in Plant Height Compared to Untreated Seed (Dicamba; Clash ™ Spray Treatment) / Percentage Increase in Total Plant Biomass Compared to Untreated Seed (Dicamba; Clash ™ Spray Treatment): over the top dicamba 100 ppm. How it is done:
Soybean (variety Asgrow AG4034) seed received a seed treatment with chlorothalonil dehalogenase (SEQ ID NO: 169) enzyme obtained from a production batch produced in a manner similar to that was described previously to generate the SM1 enzyme. Seed treatments were applied prior to planting. […] Seeds were then planted directly into 39.7 cm^3 pots containing a mixture of 3:1 Timberline top soil to MIRACLE GRO potting soil at a depth of 2.54 cm, with 2 seeds per pot. After planting, 50 mL of room temperature water was added to each pot to allow for germination. […] The treatments were then placed in a greenhouse and randomized using a complete block design to adjust for temperature and lighting differences. The plants received the same day/night cycle that would occur in the field on a summer's day. After the initial watering, plants received the same watering regimes. […] The soybean plants were then harvested and measured for biomass and plant height 4 weeks after planting.

Experiment [4] in a line: Absorbance spectra assay of mecoprop degradation by ChD or CAC. Format: biochemical. Conditions: one hour at 37° C. How it is done:
(§1) Small scale (1 mL) assays were performed to evaluate the ability of ChD and CAC to degrade MCPA-4 amine or mecoprop.
(§2) MCPA-4 amine and mecoprop have absorbance maxima (Amax) at approximately 230 and 280 nm. […] MCPA-4 amine or mecoprop end product generation is directly proportional to the degradation MCPA-4 amine or mecoprop, respectively.

A short description of experiment [5]: Absorbance spectra assay of MCPA-4 amine degradation by ChD or CAC. The format is biochemical. Particulars: one hour at 37° C. How it is done: as §1, §2
Experiment [6] in a line: Absorbance spectra assay of dicamba degradation by ChD or CAC. Conditions: dicamba 200 mg/L + enzyme at 20X dilution (5 μM), one hour at 37° C.
The nature of experiment [7]: Absorbance spectra assay of 2,4-D degradation by ChD or CAC. The format is biochemical. Particulars: 2,4-D 200 mg/L + enzyme at 20X dilution (5 μM), one hour at 37° C.
The mark [8] stands for this setting: listed as Chlorothalonil dehalogenase (SEQ ID NO: 169).

B1: ChD (SEQ ID NO: 169): chlorothalonil dehalogenase from Pseudomonas species strain CTN-3 with fifteen amino acid N-terminal truncation, SEQ ID NO: 169 (protein, listed as Pseudomonas sp.)
chain: MPLKFSGVLCASLLTITLSVAAHATELILDFNKVQMRSQQLAPGVYAHLPADSAELNAKGGVAGTSGGLIVGTRGAMLIETMLNRRLFDQVQALAKKEALGLPLLYAVNTSYHGDHSYGNMYLKAPTRVIQSTKTRDYVDGHLADDKAFMVKNFGAGRGVEQITARTGDILVPPGGRVSVDLGGKTVEIIDFGFAQTGGDLFVWEPQSKVMWTGNAVVASKPALPWLLDGKLVETLATLQKVYDFLPPDATIVPGHGVPMAREGLRWHLDYLAAVQAGVKDALARKLSLEQTVTELKMPEFRGYVLFDWVHPDLNVPAAYKDLAARP
For B1, in the experiment with soybean plants [1], the “average trifoliate damage score” value stood at 1.1. In addition, in the experiment on soybean plants [2], the “epinasty score and damage score on the trifoliate leaves compared to dicamba applied alone” value is on record as “decrease in damage”. In the experiment on soybean plants [3], the “Percentage Increase in Plant Height Compared to Untreated Seed (2,4-D; Weedar ®64 Spray Treatment)” value is given as “+6%”, the “Percentage Increase in Total Plant Biomass Compared to Untreated Seed (2,4-D; Weedar ®64 Spray Treatment)” value is “+6%”, the “Percentage Increase in Plant Height Compared to Untreated Seed (Dicamba; Clash ™ Spray Treatment)” value is recorded as “+35%” and the “Percentage Increase in Total Plant Biomass Compared to Untreated Seed (Dicamba; Clash ™ Spray Treatment)” value was “+149%”. Besides, in the experiment on soybean plants [3] (setting [8]), the “Percentage Increase in Plant Height Compared to Untreated Seed (2,4-D; Weedar ®64 Spray Treatment)” value is “+6%”, the “Percentage Increase in Total Plant Biomass Compared to Untreated Seed (2,4-D; Weedar ®64 Spray Treatment)” value is listed as “+6%”, the “Percentage Increase in Plant Height Compared to Untreated Seed (Dicamba; Clash ™ Spray Treatment)” value is “+35%” and the “Percentage Increase in Total Plant Biomass Compared to Untreated Seed (Dicamba; Clash ™ Spray Treatment)” value was “+149%”.

B2: CAC: 6-chloronicotinic acid chlorohydrolase from Bradyrhizobiaceae strain SG-6C, amino acid SEQ ID NO: 167 (protein)
chain: MSLIAIKNADWILTMDGARRVIADGSILIDKDRIRAIGKSAVIEIPPETTKVIDGRGKVVLPGLIDSHTHHSLHLGRGLADECDIQTFLYRRLYPIEASLNDEDAYISALLCQLEMIKSGTTSIIDAGNYFPEATLRAFGTTGMRGVVARSTFDIPTSSLGSLPAQVFAEETNVALKRAEEFVERNSGACDGRVQAWLQLRVLPNCSDELCRGLKSIADRLGVRYEAHAAFTKEVYEASKLQFGKSEVRRLDDLGILGEGLLLAHMGWLTPRDILLLISSKTNVVLCPTSSVHQAMGSIAFGHVPELLEMGVNVALGTDGGPHGTNDLVRQIFVAAGGYKEVRLDATIMPPETVLEMATVNGARAMGMSDQVGSIEPGKKADITIFDSRRPEWRPLHNPVANLVYCANGNSADTVIVDGRILMENRKILTFNEDDVITEAQRRSVEIGARAGLLEYGRPRWPVH
modifications: Bradyrhizobiaceae family
Take B2: the “Percent (%) increase in 252 λ (end-product formed) compared to Mecoprop control” value came out at 346% in experiment [4] (mecoprop 200 mg/L + enzyme at 20X dilution (5 μM)) and 130% in experiment [4] (mecoprop 200 mg/L + enzyme at 40X dilution ([…])). For the same molecule, the “average trifoliate damage score” value in the experiment with soybean plants [1] was 1.0. The results for the “Percent (%) increase in 252 λ (end product formed) compared to MCPA-4-Amine control” value in experiment [5] (MCPA-4 amine 200 mg/L + enzyme at 20X dilution (5 μM)) and in experiment [5] (MCPA-4 amine 200 mg/L + enzyme at 40X dilution ([…])) were 340% and 195%, respectively. Besides, in experiment [6], the “Percent (%) increase in 259 λ (end product formed) compared to dicamba control” value worked out at 344%. Also, in experiment [7], the “Percent (%) increase in 252 λ, (end product formed) compared to 2,4-D control” value is given as 148%.
